Assay: yeast display, Sf9 membrane polyspecificity reagent, FACS + sequencing; frameworks hold sequencing errors
How it was run: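 Genes from sorted yeast were amplified by colony PCR, read by MiSeq 2 × 250 sequencing and filtered on CDR length. These cells carried a synthetic nanobody library in Saccharomyces cerevisiae BJ5465 and were sorted by FACS into low and high (top ~1%) gates on anti-HA and streptavidin fluorescence. Polyreactivity is labelled according to the gate of origin.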

Row | Sequence | polyreactivity (PSR sort gate)
1 | QVQLVESGGGLVQAGGSLRLICAASGIIFPSYAMGWYRQAPGKERELVAGISLSGGSTYYADSVKGRFTISRDNAKNTVYLQMNSLKPEDTAVYYCDTRNHYFRALRYGYWGQGTLVTVSS | high polyreactivity
2 | QVQLVESGGGLLQAGGSLRLSCADSGSTFSRYSMGWYRQAPGKEREFVAAISRSGASTYYADSVKGRFTISRDNEMNTVNLQMNSLKPEDTAVYYCNTRRWRFVKYGYWGQGTQVTVSS | high polyreactivity
3 | QVQLVESGGGLVQAGGSLRLSCAASGFTFAYYAMGWYRQAPGKERELVAAITRGGGRTFYADSVKGRFTISRDNAKNTVYLQMNSLKPEDTAVYYCAREVYRHYAPVGYDYWGQGTQVTVSS | high polyreactivity
4 | QVQIVESWGCLVQAGGSLRLSCAASVNIFNVNAMGWSRQAPRKEREFLAAITSGANSYYADSEKGRFTISRDNAKNSVFLQMNSLKPEDTAVYYCAAEDGSYYRRNRFYYWGQGTQVTVSS | high polyreactivity
5 | QVQLVESGGGLVQAGGSLRLSCAASGGIFYRYVMRWYRQAPGKERELVAAITFSGGSTYYSDSVKGRFTISRDNAKNTVYLQMNSLKPEDTAVYYCAADTYYNPYWLDYWGQGTQVTVSS | low polyreactivity
6 | QVQLVESGGGLVQAGGSLRLSCAASGSTFTWYAMGWYRQAPGKERELVADISYGGRSTYYADSVKGRFTISRDNAKNTVYLQMNSLKPEDTAVYYCAAESIPYYRYDYWGQGTQVTVSS | low polyreactivity
7 | QVQLVESGGGLVQAGGSLRISCAASGIFPAYDMGWYRQAPGKERELVASISSDGSTYYADSVKGRFTISRDNAKNTVYLQMNSLKPEDTAVYYCNDVAIEPYYYVVYDIFDYWGQGTQVTVSS | low polyreactivity
8 | QVQLVESGGGLVQAGGSLRLSCAASGFTFYYYAMGWYRQAPGKERELVAGINSDGNTYYADSVKGRFTISRDNAKNTVYLQMNSLKPEDTAVYYCAARKLWPKNFVRHDYWGQGTQVTVSS | low polyreactivity
9 | QVQLVESGGGLVQAGGSHRLSCAASGFTSAVNTMGWYRQAPGKEREFVASISRNGGSTYYADSVKGRFTITRDNAKNTVYLQINSLKPEDTAVYYCNTRVPNYAFRRSRYDYWGQGTQVTVSS | high polyreactivity
10 | QVQLVESGGGLVQAGGSLRLSCAASGFIFKGNAMGWYRPAPGKERELVAAISSRGGSTYYADSVKGRFTISRDNAKNTVYLQMNSLKPEDTAVYYCATRVYWRNDYWGQGTQVTVSS | high polyreactivity
11 | QVQLVESGGGLVQAGGSLRLSCAASGRTFWSNAMGWYRQAPGKERELVAAISTGAGSTYYADSVKGRFTISRDNAKNTVYLQMNSLKPEDTAVYYCAAVYNGALYNYYYWGEGTQVTVSS | high polyreactivity
12 | QVQLVESGGGLVQAGGSLRLSCAASGSIFVYYAMGWYRQAPGKERELVATIRGSGGSTYYADSVKGRFTISRDNAKNTVYLQMNSLKPEDTAVYYCAATIKYGGRWYGSWGQGTQVTVSS | high polyreactivity
13 | QVQLVESGGGLVQAGGSLRLSCDASGLIFSWYAMGWYRQPPGKERELVAAISKGGGSTYYADSVKGRFTISRDNAKITVYLQMNSLKPEDTAVYYCAAASSYGYGYWGQGTQVTVSS | high polyreactivity
14 | QVQLVESGGGLVQAGGSLRLSCAASGRIFTTYVMGWYRQAPGKERELVAAISARGSTYYADSVKGRFTISRDNAKNTVYLEMNSLKPEDTAVYYCAAGHRLPVYYGYPRATYNYWGQGTQVTVSS | low polyreactivity
15 | QVQLVESGGGLVQAGGSLRLSCAASGRIFYINAMGWYRQAPGKEWELVAGITRSGGSTYYADSVKGRFTISRDNAKNTVYLQMNSLKPEDTAVYYCNAGRYARQHSRYDYWGQGTQVTVSS | high polyreactivity
16 | QVHLVESGGGLVQAGGSLRLSCAASGSIFTSYAMGWYRQAPGKERELVAAITSGGSTNYADSVKGRFTISRDNAKNTVFLKMNSLKPEDTAVDYCAKDRPGQLRWWFLYGYWGQGTQVTVSS | low polyreactivity
17 | QVQLVESGGGLVQAGGSLRLSCAASGSTFATYAMVWYRQAPGKERELVAAITSGGSTYYADSVKGRFTISRDNAKNTVYLQMNSLKPEDTAVYYCAARSYGWRRATYYKREEYWGQGTQVTVSS | high polyreactivity
18 | QVQLVESGGGLVQAGGSLRLSCAASGSIFKQNTKGWYRQAPGKERELVAAISSGGSTYYADSVKGRFTISRDNAKNTVYLQMNSLKPEDTAVYYCAKYYDWDYYLPLEGDYWGQGTQVTVSS | low polyreactivity
19 | QVQLVESGGGLVQAGGRLRLSCAASGSTFIDYAMGWYRPAPGKERELVAAITNGGNTKYADSVKGRFTISRDNAKNTVYLQMKSLKPEDTSVDYCSREPSIFTSSYDYWGQGTQVTVSS | low polyreactivity
20 | QDQLVESGVGLVQAGGSLRLSCAASGFTFTRNAMGWYRQAPGKEREFVAAITRSGGSTYYADSVKGRFTISRDNAKNTVYLQMNSLKPEDTAVYYCAAEVSSFLYTPSYSTDDYWGQGTQVTVSS | high polyreactivity
21 | QVQLVESGGGLVQAGGSLRLSCAASGSIFAYKAKGWYRQAPGKEREFVAVITRSDDSTYAYSVKGRFTISRDNAKNPFYLQMNSLKAEDTAVYYCARRWSYLRPSLEYDSWGQGTQVTVSS | low polyreactivity
22 | QVQLVESGGGLVQAGGSLRISCAASASIFPGYAMGWYRQAPGKERELVAAISWSGGRTYYADSVKGRFTISRDNSKNTFYLQMNSLKPEDTAVYYCAARKYHLRSAYDYWGQGTQVTVSS | low polyreactivity

Row | Sequence | polyreactivity (PSR sort gate)
23 | QVQLVESGGGLVQAGGSLRLSCAASGRIFPLYAMGWYRQAPGKERELVAAITWRAGITYYADSVKGRFTISRDNAKNTVYLQMNSLKPEDTAVYYCAARFVRGRGFAYGYWGQGTQVTVSS | high polyreactivity
24 | QVQLVESGGGLVQAGGSLRLSCAASGRIFERNAKGWYRQAPGKERELVAALTYNGGRTYYADSVKGRFTITRDNAKNTVYLQLNSLKPEDTAVYNCNAQSRVTRSSYRGSPRYDYWGQGTQVTVSS | high polyreactivity
25 | QVQLVESGGGLVQAGGSLRLSCAASGFTFYVYAMGWYRQAPGKERELVAAISKSGGSTYYADSVKGRFTISRDNAKNTVYLQMNSLKPEDTAVYYCAVYDKRSGYRGGHRYNSWGQGTQVTVSS | high polyreactivity
26 | QVQLVESGGGLVQAGGSLRLSCAASGSTFRRYTMGWYRQAPGKERELVAAITWSGGSTYYADSVKGRFTISRDNAKNTVYLQMNSLKPEDTAVYYCAADRPYHTREYYYWGQGTQVNVSS | low polyreactivity
27 | QVQLVESGGGLVQAGGSLRLSCAASGRTFPYYAMGGYRKAPGKERELLASISRGGNTNYADSVKGRFTISRDNAKNTVYLQMNSLKPEATAVYYCAADYYLAYGSRRGGYWGQGTQVTVSS | high polyreactivity
28 | QVQLVESGGGLVQAGGSLRLSCAASGRTFYDYAMGWYRQAPGKERELVAAISRRAGSTYYADSVKGRFTISRDNAKNTVYLQMNSLKPEDTAVYYCAAAYYRRWWRGHHYAFDYWGQGTQVTVSS | high polyreactivity
29 | QVQLVESGGGIVQAGGSLRLSCAASGRIFGTYGMGWYRQAPGKERELVAAISGGGSTNYADSVKGRFTISRDNAKNTVYLQMNSLKPEDTAVYYCAARYPPYRSWYSYDYWGHGTQVTVSS | low polyreactivity
30 | QVQLVESGGGLVQAGGSLRLSCAASGITFVPYAMGWYRQAPGKERELVAAISSSGGSTYYADSVKGRFTISRDNAKNTVYLQMNSLKPEDTAVYYCNVRTHSYIGMDYWGQGTQVTVSS | low polyreactivity
31 | QVQLVESGGGLVQAGGSLRLSCAASGSIFSDYAMGWYRQAPGKERELVAGISSGGGTTYADSVKGRFTISRDNAKNTVYLQMNSLIPEDTAVYYCNKQDQPVGRSGYPYGYDYWGQGTQVTVSS | low polyreactivity
32 | QVQLVESGGGLVQAGGSLRLSCAASGSIFYWYAMGWYSQAPGKERELVAAIDISDDTYYADSVKGRFTISRDNAKNTVYLQMNSLKPEDTAGYYCAARTTRWFYEYDWGQGSQVTVSS | high polyreactivity
33 | QVQLVESGGGLVQAGGSLRLSCAASGRTLWYYTMGWYRQAPGKERELVAVISTSGGRTYYADSVKGRFTISRDNAKNTVYLQMNSLKPEDTAVYYCAADGFQYTLGNYYWGQGTQVTVSS | high polyreactivity
34 | QVQLVESGGGLVQAVGSLRLSCAASGRIFGYYDMGWYRQAPGKERELVAAINYDGGSTYYADSVKGRFTISRDNAKNTVYLQMNSLKPDDTAVYYCNKDGRVYLDHDYWGQGTQVTVSS | low polyreactivity
35 | QVQLEESGGRLVQAGGSLRLSCAASGLIFAVYAMGWYRQAPGKERELVASSTGSTYYADSVKGRFTISRDNAKNTVYLQMNSLKPEDHAVYYCAADIIRVLDIPLYYWGQGSQVTVSS | low polyreactivity
36 | QVQLVESGGGLVQAGGSLRLSCAASGSTSVVNPMGWSRPAPGTERELVAAISWSGGSTYYADSVKGRFTISRDNAKNTVYLQMNSLKPEDTAVYYCAKRRVYYGSRYNYWGQGTQVTVSS | high polyreactivity
37 | QVQLVESGGGLVQAGGSLRLSCAASGSIFAGNTMGWYRQAPGKEREFVASIRSSSGSTYYADSVKGRFTISRDNAKNTVYLQMNSLKPEDTAVYYCAARVYHYREFWVNYWGHGTQVTVSS | high polyreactivity
38 | QVQRVESGGGLVQAGGSLRLSCAASGRIFNWYVMGWKRQAPGKERELVAAINSGGITKYADSVKGRFTISRDNAKNTVYLQMNSLKPEDSAVYYCAAYYRRYDYDYWGQGTQVTVSS | high polyreactivity
39 | QVQLVESGGGLVQAGGSLRLSCAASGRTIGFNGMGWYRQAPGKERELVAAITRSGGNTYADSVKGRFTISRDNAKNTVYLQMNSLKPEDTAVYYCATTYVGVTLTGPGDYWGQGTQVTVSS | low polyreactivity
40 | QVQLVESGGGLVQAGGSLRLSCAASGGIFWAYAMGWYRQAPGKERELVAAITTRGTSTYYADSVKGRFTISCDNAKNTVYLQMNSLKPEDTAVYYCAAALYGYYSTLTTYWGQGTQVTVSS | high polyreactivity
41 | QVRLVESGGGLDQAGGSLPLSCAASGRTFEPNAMGWYRQAPGKERELVAAITSAGITHYADSVKGRFTISRDNAKNTVYLQMNSLKPEDTAVYYCRLQTGIIDRLRRYNYWGQGTQVTVSS | high polyreactivity
42 | QVQLVESGGGLVQAGGSLRLSCAASGLTIYYYAMGWYIQAPGKEREFVAAISWHGGSTYYADSVKGRFTISRDNAKNTVYLQMNSLKPEDTAVYYCAADIYLRGFHYDYWGLGTQVTVSS | low polyreactivity
43 | QVQLVESGGGLVQAGGSLRLSCAASGNTFRRYAMGWYRQAPGKEREFVAAISSSGGRTYYADSVKGRFTISRDNAKNTVYVQMNSLKPEDTAVYYCNAVSYWVRGEMDYWGQGTQVTVSS | high polyreactivity

From the nanobody polyreactivity screen of Harvey et al. (2022)
